The supplement of paper PMC7877785
± gives the uncertainty stated by the source.

Experiment: self-splicing fitness, log relative to wild type (ln ratio); higher = more splicing; Tetrahymena group I intron in knt gene, E. coli kanamycin selection, DiMSum; sequences stand for … in CUCUCU…GGAGGGAAAAGUUAUCAGGCAUGCACCUGGUAGCUAGUCUUUAAACCAAUAGAUUGCAUCGGUUUAAAAGGCAAGACCGUCAAAUUGCGGGAAAGGGGUCAACAGCCGUUCAGUACCAAGUCUCAGGGGAAACUUUGAGAUGGCCUUGCAAAGGGUAUGGUAAUAAGCUGACGGACAUGGUCCUAACCACGCAGCCAAGUCCUAAGUCAACAGAUCUUCUGUUGAUAUGGAUGCAGUUCACAGACUAAAUGUCGGUCGGGGAAGAUGUAUUCUUCUCAUAAGAUAUAGUCGGACCUCUCCUUAAUGGGAGCUAGCGGAUGAAGUGAUGCAACACUGGAGCCGCUGGGAACUAAUUUGUAUGCGAAAGUAUAUUGAUUAGUUUUGGAGUACUCGUGGUCG
Outline: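 A randomised library covering all eight P1ex-region intron nucleotides was built with the intron in the knt kanamycin-resistance gene on pET-22b(+) and held in E. coli BL21(DE3). Cells were grown overnight at 37°C or 30°C on LB agar, with or without 25 μg/mL kanamycin, plus 100 μg/mL carbenicillin, 50 μM IPTG and 0.2% rhamnose, and pooled colonies were amplicon-sequenced on an Illumina HiSeq 2500. DiMSum fitness is the error-weighted combination of wild-type-normalised replicate fold changes, kanamycin versus none.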

Sequence	self-splicing fitness (ln) (30 °C)	self-splicing fitness (ln) (37 °C)
UAUCAGCAAUAUUACGCGGA	-0.964 ± 0.081	-0.0724 ± 0.076
UAUCAGCAAUAUUACGCUCG	-0.0189 ± 0.079	0.35 ± 0.12
UAUCAGCAAUAUUACGCUUG	-0.489 ± 0.098	0.0735 ± 0.12
UAUCAGCAAUAUUACGGAGG	-1.18 ± 0.13	-0.979 ± 0.14
UAUCAGCAAUAUUACGGAGU	-2.09 ± 0.068	-0.974 ± 0.09
UAUCAGCAAUAUUACGGAUU	-0.839 ± 0.079	0.0545 ± 0.1
UAUCAGCAAUAUUACGGUUA	-0.0611 ± 0.064	0.0198 ± 0.07
UAUCAGCAAUAUUACGGUUC	-2.42 ± 0.14	0.223 ± 0.12
UAUCAGCAAUAUUACGUGAU	-3.01 ± 0.12	-1.51 ± 0.11
UAUGAGCAAUAUUACGAACC	-2.34 ± 0.4	
UAUGAGCAAUAUUACGAAGU	-4.08 ± 0.42	-1.93 ± 0.23
UAUGAGCAAUAUUACGAAUG	-2.49 ± 0.17	-1.28 ± 0.18
UAUGAGCAAUAUUACGACGU	-3.11 ± 0.21	-2.62 ± 0.3
UAUGAGCAAUAUUACGAUUU	-3.29 ± 0.26	-1.76 ± 0.22
UAUGAGCAAUAUUACGCAGG	-2.59 ± 0.26	-2.34 ± 0.22
UAUGAGCAAUAUUACGCGCG	-2.51 ± 0.31	-1.01 ± 0.27
UAUGAGCAAUAUUACGCGGC	-4.02 ± 0.29	-1.8 ± 0.25
UAUGAGCAAUAUUACGCGGG	-2.75 ± 0.3	-1.6 ± 0.23
UAUGAGCAAUAUUACGCUAA	-1.99 ± 0.23	-2.39 ± 0.25
UAUGAGCAAUAUUACGCUCU	-3.16 ± 0.41	
UAUGAGCAAUAUUACGCUGC	-4.14 ± 0.31	-2.78 ± 0.3
UAUGAGCAAUAUUACGGACA	-2.64 ± 0.35	-2.28 ± 0.29
UAUGAGCAAUAUUACGGAGA	-2.48 ± 0.28	-2.34 ± 0.27
UAUGAGCAAUAUUACGGAUU	-2.96 ± 0.28	-2.28 ± 0.31
UAUGAGCAAUAUUACGGCAA	-2.46 ± 0.38	-2.15 ± 0.3

Sequence	self-splicing fitness (ln) (30 °C)	self-splicing fitness (ln) (37 °C)
UAUGAGCAAUAUUACGGCCA		-1.18 ± 0.28
UAUGAGCAAUAUUACGGGGA	-2.94 ± 0.39	
UAUGAGCAAUAUUACGGUCG	-2.52 ± 0.12	-1.19 ± 0.12
UAUGAGCAAUAUUACGUCAU	-3.16 ± 0.2	-2.38 ± 0.23
UAUGAGCAAUAUUACGUGCA	-2.09 ± 0.13	-2.32 ± 0.15
UAUGAGCAAUAUUACGUUGC	-2.19 ± 0.19	-2.65 ± 0.23
UAUUAGCAAUAUUACGACAU	-1.63 ± 0.017	-0.705 ± 0.035
UAUUAGCAAUAUUACGACGG	-0.886 ± 0.35	0.0207 ± 0.33
UAUUAGCAAUAUUACGAGCG	-0.705 ± 0.11	-0.219 ± 0.15
UAUUAGCAAUAUUACGAGUC	-3.35 ± 0.48	
UAUUAGCAAUAUUACGAUAG	-0.949 ± 0.16	-0.79 ± 0.17
UAUUAGCAAUAUUACGAUUA	0.102 ± 0.13	-0.402 ± 0.12
UAUUAGCAAUAUUACGAUUU	-1.76 ± 0.14	-0.438 ± 0.12
UAUUAGCAAUAUUACGCACA	-0.485 ± 0.13	-0.0783 ± 0.23
UAUUAGCAAUAUUACGCGAG	-2.21 ± 0.2	-0.0781 ± 0.15
UAUUAGCAAUAUUACGCGCA	-0.12 ± 0.13	0.163 ± 0.18
UAUUAGCAAUAUUACGCUAG	-2.36 ± 0.19	-0.845 ± 0.15
UAUUAGCAAUAUUACGCUAU		-2.14 ± 0.29
UAUUAGCAAUAUUACGCUUG	-0.91 ± 0.11	-0.336 ± 0.16
UAUUAGCAAUAUUACGGCGU	-1.24 ± 0.18	-0.989 ± 0.18
UAUUAGCAAUAUUACGGGAU		-2.61 ± 0.41
UAUUAGCAAUAUUACGGGUA	-0.742 ± 0.12	-0.599 ± 0.11
UAUUAGCAAUAUUACGGUCG	-0.442 ± 0.13	0.383 ± 0.23
UAUUAGCAAUAUUACGGUGG	-2.71 ± 0.28	-1.22 ± 0.2
UAUUAGCAAUAUUACGUACC	-3.37 ± 0.37	-1.26 ± 0.35

Sequence	self-splicing fitness (ln) (30 °C)	self-splicing fitness (ln) (37 °C)
UAUUAGCAAUAUUACGUAGA	-2.62 ± 0.19	-1.38 ± 0.19
UAUUAGCAAUAUUACGUAUU	-3.62 ± 0.17	-1.25 ± 0.14
UAUUAGCAAUAUUACGUCCA	-0.691 ± 0.11	-0.00937 ± 0.15
UAUUAGCAAUAUUACGUCUG	0.0275 ± 0.14	-0.652 ± 0.1
UAUUAGCAAUAUUACGUGAG	-1.55 ± 0.094	0.0296 ± 0.13
UAUUAGCAAUAUUACGUUAG	-2.33 ± 0.18	-1.62 ± 0.17
UAUUAGCAAUAUUACGUUUC	-3.79 ± 0.28	-2.98 ± 0.34
UCAAAGCAAUAUUACGAAGA	-2.21 ± 0.18	-1.02 ± 0.13
UCAAAGCAAUAUUACGACGU	-0.985 ± 0.063	0.289 ± 0.069
UCAAAGCAAUAUUACGAUGG	-1.91 ± 0.1	0.127 ± 0.11
UCAAAGCAAUAUUACGAUUU	-3.58 ± 0.24	-2.3 ± 0.22
UCAAAGCAAUAUUACGCACC		-0.644 ± 0.36
UCAAAGCAAUAUUACGCGUC	-3.15 ± 0.14	-2.89 ± 0.18
UCAAAGCAAUAUUACGCGUU	-3.65 ± 0.18	-3.64 ± 0.29
UCAAAGCAAUAUUACGCUGU	-3.7 ± 0.21	-2.82 ± 0.18
UCAAAGCAAUAUUACGGCAC	-3.33 ± 0.38	-1.68 ± 0.35
UCAAAGCAAUAUUACGGGAG	-4.12 ± 0.3	-2.5 ± 0.19
UCAAAGCAAUAUUACGGGCC	-3.12 ± 0.4	
UCAAAGCAAUAUUACGGUAA	-2.48 ± 0.16	-0.268 ± 0.13
UCAAAGCAAUAUUACGGUAG	-1.54 ± 0.088	-1.19 ± 0.11
UCAAAGCAAUAUUACGGUGC	-3.92 ± 0.42	-1.94 ± 0.39
UCAAAGCAAUAUUACGUAUC	-3.73 ± 0.23	-2.17 ± 0.19
UCAAAGCAAUAUUACGUAUG	-2.44 ± 0.12	-2.05 ± 0.15
UCAAAGCAAUAUUACGUCGC	-3.36 ± 0.18	-2.43 ± 0.25
UCAAAGCAAUAUUACGUCGU	-2.23 ± 0.11	-1.28 ± 0.11

Sequence	self-splicing fitness (ln) (30 °C)	self-splicing fitness (ln) (37 °C)
UCAAAGCAAUAUUACGUCUC	-4.01 ± 0.36	-1.5 ± 0.19
UCAAAGCAAUAUUACGUGGG	-2.85 ± 0.098	-2.17 ± 0.12
UCAAAGCAAUAUUACGUUCC	-2.89 ± 0.38	
UCACAGCAAUAUUACGAAAA	-3 ± 0.31	-1.27 ± 0.17
UCACAGCAAUAUUACGAAGU	-2.55 ± 0.22	-3.34 ± 0.31
UCACAGCAAUAUUACGACGA	-0.431 ± 0.071	-0.228 ± 0.073
UCACAGCAAUAUUACGAUGC	-3.33 ± 0.17	-1.26 ± 0.13
UCACAGCAAUAUUACGAUGG	-1.52 ± 0.06	-0.512 ± 0.081
UCACAGCAAUAUUACGCGCU	-3.85 ± 0.21	-1.78 ± 0.16
UCACAGCAAUAUUACGCUAG	-2.91 ± 0.13	-1.49 ± 0.12
UCACAGCAAUAUUACGCUCC	-2.21 ± 0.27	-1.51 ± 0.37
UCACAGCAAUAUUACGCUUA	-1.66 ± 0.15	-0.902 ± 0.12
UCACAGCAAUAUUACGGAUU	-4.45 ± 0.13	-2.38 ± 0.096
UCACAGCAAUAUUACGGCGC	-2.08 ± 0.1	-1.02 ± 0.12
UCACAGCAAUAUUACGGGUC	-3.67 ± 0.16	-2.79 ± 0.14
UCACAGCAAUAUUACGGUGA	-3.99 ± 0.33	-2.77 ± 0.21
UCACAGCAAUAUUACGGUGG	-3.45 ± 0.14	-2.71 ± 0.18
UCACAGCAAUAUUACGGUUC	-2.91 ± 0.11	-2.7 ± 0.19
UCACAGCAAUAUUACGGUUG	-1.41 ± 0.087	-0.981 ± 0.11
UCACAGCAAUAUUACGUAAG	-1.98 ± 0.083	-1.33 ± 0.1
UCACAGCAAUAUUACGUACC	-2.45 ± 0.23	-2.37 ± 0.23
UCACAGCAAUAUUACGUGGG	-3.34 ± 0.12	-2.68 ± 0.12
UCACAGCAAUAUUACGUGUU	-3.9 ± 0.13	-2.46 ± 0.11
